We go through 94 variants from the supplement of paper PMC10567573.

B1: LARP4 (parent)
chain: WTVANMEEIKKLTTDPDLILEVLR
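Further: lentivirally expressed fusions sorted by FACS into six bins by GFP to DsRed ratio, PSI derived from sequencing read proportions per bin multiplied by bin number.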

In the data set the parent is B1. Briefly: protein stability index of a GFP-peptide fusion (GPS, HEK-293T) (PSI 1-6); higher = more stable. The settings on record: c terminus: a fixed tail appended.
Regarding WTVANMEEIKKLTSDPDLILEVLR [T14S], the protein stability index was 1.91.
Regarding WTVANMEEIKKLTPDPDLILEVLR [T14P], the protein stability index was determined as 2.01.
In the case of WTVANMEEIKKLTQDPDLILEVLR [T14Q], the protein stability index is 2.59.
With WTVANMEEIKKLTMDPDLILEVLR [T14M], the protein stability index amounted to 2.54.
On to WTVANMEEIKKLTCDPDLILEVLR [T14C], for which the protein stability index worked out at 1.77.
The figure for WTVANMEEIKKLTEDPDLILEVLR [T14E] is 2.44; for WTVANMEEIKKLTYDPDLILEVLR [T14Y] it is 1.65; for WTVANMEEIKKLTVDPDLILEVLR [T14V] it is 1.05.
The figure for WTVANMEEIKKLTNDPDLILEVLR [T14N] is 2.52; for WTVANMEEIKKLTFDPDLILEVLR [T14F] it is 1.39; for WTVANMEEIKKLTRDPDLILEVLR [T14R] it is 2.14.
WTVANMEEIKKLTGDPDLILEVLR [T14G]: the protein stability index amounted to 2.01.
For the variant WTVANMEEIKKLTWDPDLILEVLR [T14W], the protein stability index was determined as 1.75.
On to WTVANMEEIKKLTKDPDLILEVLR [T14K], for which the protein stability index worked out at 2.21.
For the variant WTVANMEEIKKLTHDPDLILEVLR [T14H], the protein stability index was found to be 3.88.
As to WTVANMEEIKKLTIDPDLILEVLR [T14I], the protein stability index is 2.08.
As to WTVANMEEIKKLTLDPDLILEVLR [T14L], the protein stability index worked out at 1.99.
The figure for WTVANMEEIKKLTDDPDLILEVLR [T14D] is 2.46; for WTVANMEEIKKLTADPDLILEVLR [T14A] it is 2.08.
For the variant WTVANMEEIKKLTTDPDQILEVLR [L18Q], the protein stability index turned out to be 3.13.
Consider WTVANMEEIKKLTTDPDMILEVLR [L18M], for which the protein stability index is 2.55.
For WTVANMEEIKKLTTDPDKILEVLR [L18K] the value was 2.8.
The figure for WTVANMEEIKKLTTDPDTILEVLR [L18T] is 2.26; for WTVANMEEIKKLTTDPDRILEVLR [L18R] it is 2.87; for WTVANMEEIKKLTTDPDWILEVLR [L18W] it is 2.54.
Regarding WTVANMEEIKKLTTDPDCILEVLR [L18C], the protein stability index was found to be 2.34.
On to WTVANMEEIKKLTTDPDVILEVLR [L18V], for which the protein stability index amounted to 2.99.
With WTVANMEEIKKLTTDPDHILEVLR [L18H], the protein stability index turned out to be 2.6.
With WTVANMEEIKKLTTDPDGILEVLR [L18G], the protein stability index worked out at 2.95.
WTVANMEEIKKLTTDPDFILEVLR [L18F]: the protein stability index stood at 1.92.
Consider WTVANMEEIKKLTTDPDNILEVLR [L18N], for which the protein stability index is 3.53.
The figure for WTVANMEEIKKLTTDPDPILEVLR [L18P] is 2.33; for WTVANMEEIKKLTTDPDIILEVLR [L18I] it is 2.5.
With WTVANMEEIKKLTTDPDEILEVLR [L18E], the protein stability index is 3.67.
Turning to WTVANMEEIKKLTTDPDDILEVLR [L18D], the protein stability index amounted to 2.77.
For WTVANMEEIKKLTTDPDYILEVLR [L18Y], the protein stability index was determined as 3.46.
In the case of WTVANMEEIKKLTTDPDSILEVLR [L18S], the protein stability index worked out at 3.05.
For WTVANMEEIKKLTTDPDAILEVLR [L18A] the value was 2.71; for WTVANMEEIKKLTTDPDLILEVAR [L23A], 2.37.
As for WTVANMEEIKKLTTDPDLILEVCR [L23C], the protein stability index amounted to 3.17.
As to WTVANMEEIKKLTTDPDLILPVLR [E21P], the protein stability index was 1.98.
WTVANMEEIKKLTTDPDLILNVLR [E21N]: the protein stability index was 2.32.
On to WTVANMEEIKKLTTDPDLILYVLR [E21Y], for which the protein stability index amounted to 2.12.
WTVANMEEIKKLTTDPDLILQVLR [E21Q]: the protein stability index came to 1.6.
In the case of WTVANMEEIKKLTTDPDLILAVLR [E21A], the protein stability index was 2.1.
Consider WTVANMEEIKKLTTDPDLILDVLR [E21D], for which the protein stability index turned out to be 2.31.
Turning to WTVANMEEIKKLTTDPDLILMVLR [E21M], the protein stability index is 2.08.
For WTVANMEEIKKLTTDPDLILTVLR [E21T], the protein stability index came to 1.9.
Consider WTVANMEEIKKLTTDPDLILCVLR [E21C], for which the protein stability index is 1.69.
The figure for WTVANMEEIKKLTTDPDLILRVLR [E21R] is 1.92; for WTVANMEEIKKLTTDPDLILLVLR [E21L] it is 1.48.
For WTVANMEEIKKLTTDPDLILHVLR [E21H] the value was 1.58; for WTVANMEEIKKLTTDPDLILIVLR [E21I], 1.85; for WTVANMEEIKKLTTDPDLILKVLR [E21K], 2.36.
Take WTVANMEEIKKLTTDPDLILFVLR [E21F]: the protein stability index amounted to 1.63.
Take WTVANMEEIKKLTTDPDLILWVLR [E21W]: the protein stability index was determined as 2.1.
Consider WTVANMEEIKKLTTDPDLILGVLR [E21G], for which the protein stability index stood at 2.21.
The figure for WTVANMEEIKKLTTDPDLILSVLR [E21S] is 1.66; for WTVANMEEIKKLTTDPDLILVVLR [E21V] it is 1.86; for WTVANMEEIKKLTTDPDLIEEVLR [L20E] it is 3.68.
Turning to WTVANMEEIKKLTTDPDLICEVLR [L20C], the protein stability index worked out at 2.56.
On to WTVANMEEIKKLTTDPDLIMEVLR [L20M], for which the protein stability index was found to be 2.02.
The figure for WTVANMEEIKKLTTDPDLIYEVLR [L20Y] is 2.17; for WTVANMEEIKKLTTDPDLIDEVLR [L20D] it is 3.74; for WTVANMEEIKKLTTDPDLITEVLR [L20T] it is 2.52.
For the variant WTVANMEEIKKLTTDPDLIVEVLR [L20V], the protein stability index amounted to 2.19.
Take WTVANMEEIKKLTTDPDLIAEVLR [L20A]: the protein stability index was 3.37.
On to WTVANMEEIKKLTTDPDLIGEVLR [L20G], for which the protein stability index is 2.01.
With WTVANMEEIKKLTTDPDLIFEVLR [L20F], the protein stability index was determined as 2.15.
For WTVANMEEIKKLTTDPDLISEVLR [L20S], the protein stability index came to 2.1.
With WTVANMEEIKKLTTDPDLIQEVLR [L20Q], the protein stability index stood at 3.64.
With WTVANMEEIKKLTTDPDLIHEVLR [L20H], the protein stability index was 2.64.
With WTVANMEEIKKLTTDPDLIWEVLR [L20W], the protein stability index is 2.01.
For WTVANMEEIKKLTTDPDLINEVLR [L20N], the protein stability index came out at 3.24.
Turning to WTVANMEEIKKLTTDPDLIKEVLR [L20K], the protein stability index was 3.53.
Turning to WTVANMEEIKKLTTDPDLIREVLR [L20R], the protein stability index was 2.38.
Consider WTVANMEEIKKLTTDPDLIPEVLR [L20P], for which the protein stability index amounted to 3.02.
As to WTVANMEEIKKLTTDPDLIIEVLR [L20I], the protein stability index turned out to be 2.1.
WTVANMEEIKKLTTDWDLILEVLR [P16W]: the protein stability index worked out at 1.43.
With WTVANMEEIKKLTTDSDLILEVLR [P16S], the protein stability index stood at 2.28.
Take WTVANMEEIKKLTTDHDLILEVLR [P16H]: the protein stability index is 1.63.
For WTVANMEEIKKLTTDNDLILEVLR [P16N], the protein stability index amounted to 1.93.
The figure for WTVANMEEIKKLTTDEDLILEVLR [P16E] is 2.22; for WTVANMEEIKKLTTDQDLILEVLR [P16Q] it is 1.84; for WTVANMEEIKKLTTDMDLILEVLR [P16M] it is 2.11.
The figure for WTVANMEEIKKLTTDDDLILEVLR [P16D] is 2.38; for WTVANMEEIKKLTTDTDLILEVLR [P16T] it is 1.89; for WTVANMEEIKKLTTDCDLILEVLR [P16C] it is 1.75.
With WTVANMEEIKKLTTDYDLILEVLR [P16Y], the protein stability index is 1.91.
On to WTVANMEEIKKLTTDADLILEVLR [P16A], for which the protein stability index was found to be 1.55.
Consider WTVANMEEIKKLTTDFDLILEVLR [P16F], for which the protein stability index came out at 1.63.
For the variant WTVANMEEIKKLTTDVDLILEVLR [P16V], the protein stability index amounted to 1.2.
As to WTVANMEEIKKLTTDKDLILEVLR [P16K], the protein stability index was found to be 1.59.
On to WTVANMEEIKKLTTDIDLILEVLR [P16I], for which the protein stability index amounted to 1.67.
